The text below walks through data of PMC7614001 (2022).

One assay addresses T1, ALK6 ECD (Homo sapiens, UniProt O00238).
T1 chain: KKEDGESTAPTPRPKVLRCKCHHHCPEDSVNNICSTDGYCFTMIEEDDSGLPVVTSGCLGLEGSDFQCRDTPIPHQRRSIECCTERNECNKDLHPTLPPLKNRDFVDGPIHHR
The assay is described as follows: BLI. Background: Biolayer interferometry detects binding as a change in optical thickness at a sensor tip.

The target of assay [1] is T2, ALK1 ECD (Homo sapiens, UniProt P37023). The assay is described as follows: BLI.
In the next assay the target is T3, ALK3 ECD (Homo sapiens, UniProt P36894).
T3 chain: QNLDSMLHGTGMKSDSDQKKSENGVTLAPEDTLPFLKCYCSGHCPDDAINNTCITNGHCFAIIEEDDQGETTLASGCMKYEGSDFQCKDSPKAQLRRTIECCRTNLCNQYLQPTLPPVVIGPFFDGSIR
The assay is described as follows: BLI.

In another assay the target is T4, ALK5 ECD (Homo sapiens, UniProt P36897).
T4 chain: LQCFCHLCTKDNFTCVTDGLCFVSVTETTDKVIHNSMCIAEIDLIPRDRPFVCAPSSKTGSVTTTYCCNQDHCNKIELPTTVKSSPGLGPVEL
Put plainly: BLI.

Another assay addresses T5, BMPR-II ECD (Homo sapiens, UniProt Q13873).
T5 chain: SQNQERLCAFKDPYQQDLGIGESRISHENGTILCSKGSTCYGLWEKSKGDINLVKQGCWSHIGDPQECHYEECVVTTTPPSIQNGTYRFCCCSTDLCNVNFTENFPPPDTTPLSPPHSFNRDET
The assay is described as follows: BLI.

The target of assay [2] is T2, ALK1 ECD. The assay is described as follows: SPR. (SPR reads the build-up and loss of mass on a sensor chip optically.)
A further assay addresses ACTR-IIA ECD (Homo sapiens, UniProt P27037). Put plainly: BLI.
For another assay, the target named is T6, ACTR-IIB ECD (Homo sapiens, UniProt Q13705).
T6 chain: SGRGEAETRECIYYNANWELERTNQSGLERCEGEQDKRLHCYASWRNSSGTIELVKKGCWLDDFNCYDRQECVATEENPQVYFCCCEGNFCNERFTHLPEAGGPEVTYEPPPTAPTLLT
Put plainly: BLI.

The target of another assay is T7, ALK2/BMPR-II ECD (Homo sapiens, UniProt Q04771).
T7 chain 1: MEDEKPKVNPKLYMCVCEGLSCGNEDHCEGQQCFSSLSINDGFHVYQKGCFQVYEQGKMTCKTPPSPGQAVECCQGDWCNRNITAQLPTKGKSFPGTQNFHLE
T7 chain 2: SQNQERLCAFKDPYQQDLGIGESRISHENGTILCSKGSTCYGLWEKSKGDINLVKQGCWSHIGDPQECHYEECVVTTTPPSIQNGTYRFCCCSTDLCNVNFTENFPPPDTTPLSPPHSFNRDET
The assay is described as follows: BLI.

Another assay has as its target T8, ALK2 ECD (Homo sapiens, UniProt Q04771).
T8 chain: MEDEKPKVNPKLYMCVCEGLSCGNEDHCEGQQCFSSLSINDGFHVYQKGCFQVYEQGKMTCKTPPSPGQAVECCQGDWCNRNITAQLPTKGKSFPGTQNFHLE
Put plainly: BLI.

The next assay has as its target T9, ALK2/ACTR-IIB ECD (Homo sapiens, UniProt Q04771).
T9 chain 1: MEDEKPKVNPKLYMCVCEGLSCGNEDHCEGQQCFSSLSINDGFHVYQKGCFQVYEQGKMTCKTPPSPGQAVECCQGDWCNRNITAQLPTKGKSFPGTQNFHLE
T9 chain 2: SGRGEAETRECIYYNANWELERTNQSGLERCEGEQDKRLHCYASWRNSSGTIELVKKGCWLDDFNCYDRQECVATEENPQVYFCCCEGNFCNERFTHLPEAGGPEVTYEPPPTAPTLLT
Put plainly: BLI.

Several values for one entry are separate records, joined by “and”; a condition that tells them apart may be missing. Equal entries are not always repeated.

T2 sequence (P37023 22-118): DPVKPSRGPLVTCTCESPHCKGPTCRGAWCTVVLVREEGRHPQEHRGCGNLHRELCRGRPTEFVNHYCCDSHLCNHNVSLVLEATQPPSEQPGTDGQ
Sequence of ACTR-IIA ECD (P27037 20-135): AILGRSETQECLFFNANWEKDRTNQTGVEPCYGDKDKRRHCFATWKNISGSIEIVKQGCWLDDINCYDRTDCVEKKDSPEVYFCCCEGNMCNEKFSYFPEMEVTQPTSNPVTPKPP

B1: BMP-2 (protein)
chain: QAKHKQRKRLKSSCKRHPLYVDFSDVGWNDWIVAPPGYHAFYCHGECPFPLADHLNSTNHAIVQTLVNSVNSKIPKACCVPTELSAISMLYLDENEKVVLKNYQDMVVEGCGCR
For the molecule B1, the Kd (usually the free concentration of one partner at which half of the binding sites on the other are occupied at equilibrium, for simple one-to-one binding) in the assay with ALK6 ECD turned out to be 0.5 nM; with ALK1 ECD [1] it was 13 nM; with ALK3 ECD it was 0.21 nM; in the assay with ALK5 ECD, 5.8 nM; with BMPR-II ECD it was 5.4 nM.

B2: BMP-9 (protein)
chain: SAGAGSHCQKTSLRVNFEDIGWDSWIIAPKEYEAYECKGGCFFPLADDVTPTKHAIVQTLVHLKFPTKVGKACCVPTKLSPISVLYKDDMGVPTLKYHYEGMSVAECGCR
As for B2, the Kd with ALK1 ECD [2] is 0.0134 nM; in the assay with ALK1 ECD [1], 0.2 nM; with ALK5 ECD it was 51 nM; in the assay with BMPR-II ECD, 0.8 nM; in the assay with ACTR-IIA ECD, 1.7 nM; with ACTR-IIB ECD, 1.4 nM.

B3: BMP-4 (protein)
chain: SPKHHSQRARKKNKNCRRHSLYVDFSDVGWNDWIVAPPGYQAFYCHGDCPFPLADHLNSTNHAIVQTLVNSVNSSIPKACCVPTELSAISMLYLDEYDKVVLKNYQEMVVEGCGCR
As to B3, the Kd is 3.1 nM with ALK6 ECD; 55.4 nM with ALK1 ECD [1]; 55.8 nM and 90.7 nM with ALK2/BMPR-II ECD; 10.5 nM in the assay with ALK2 ECD; 21.9 nM with ALK5 ECD; 56 nM in the assay with BMPR-II ECD. In addition, the Kd is 21.4 nM with ACTR-IIA ECD; 103 nM and 88.7 nM with ALK2/ACTR-IIB ECD; 26 nM with ACTR-IIB ECD.

B4: BMP-7 (protein)
chain: STGSKQRSQNRSKTPKNQEALRMANVAENSSSDQRQACKKHELYVSFRDLGWQDWIIAPEGYAAYYCEGECAFPLNSYMNATNHAIVQTLVHFINPETVPKPCCAPTQLNAISVLYFDDSSNVILKKYRNMVVRACGCH
Turning to B4, the Kd with ALK6 ECD came to 15 nM; with ALK1 ECD [1], 23.1 nM; in the assay with ALK5 ECD it was 22.6 nM; in the assay with BMPR-II ECD it was 5.5 nM; with ACTR-IIA ECD, 1.3 nM; in the assay with ACTR-IIB ECD it was 7.1 nM.
